The text below walks through data of US20240392024A1 (SHANGHAI CELGEN BIO PHARMACEUTICAL, published 2024).

Values joined by “and” are separate entries in the source; they are usually repeats but may differ in a detail not shown here. Equal entries are not always repeated.

In general, IC50 refers to the concentration at which inhibition is half-maximal. Usually EC50 stands for the concentration giving half of the maximal effect. Higher therefore signals a less potent agent. What is called Kd is the equilibrium constant for the complex coming apart. The low end stands for higher affinity, the high end for lower affinity. As usually defined, the koff is the rate constant with which the complex falls apart. Higher therefore signals fast dissociation. A word on the kon: it is the second-order rate constant of association. Low values mean slower complex formation, high ones faster complex formation.

The target of assay [1] is T1, human TNFR2 on the cell membrane (human, UniProt P20333 23-461).
T1 construct: whole, on cells; One molecule for all cell formats; also called TNFR2-CHO cells; CHO-TNFR2
T1 sequence (looked up): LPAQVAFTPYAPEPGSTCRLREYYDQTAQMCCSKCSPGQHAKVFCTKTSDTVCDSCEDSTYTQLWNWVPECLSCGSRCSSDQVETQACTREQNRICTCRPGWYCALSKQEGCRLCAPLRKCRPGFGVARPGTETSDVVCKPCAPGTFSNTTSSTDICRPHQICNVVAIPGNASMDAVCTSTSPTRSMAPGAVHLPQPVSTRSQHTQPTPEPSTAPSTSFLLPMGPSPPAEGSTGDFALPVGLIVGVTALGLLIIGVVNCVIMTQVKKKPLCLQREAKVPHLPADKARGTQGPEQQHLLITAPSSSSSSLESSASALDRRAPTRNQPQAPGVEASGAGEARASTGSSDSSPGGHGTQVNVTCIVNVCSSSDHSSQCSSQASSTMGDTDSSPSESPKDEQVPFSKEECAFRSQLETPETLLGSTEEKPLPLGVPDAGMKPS
The experiment in a line: flow cytometry on human PBMC, CD3+ T cells. The procedure:
Purified anti-human TNFR2 human-mouse chimeric monoclonal antibodies were co-cultured with PBMC cells (Oricells) and stained. The binding of the antibody was analyzed by flow cytometry. The specific steps are as follows: PBMC cells (Oricells) were counted, centrifuged, resuspended, then added to a 96-deep well plate, and the supernatant was discarded. Diluted anti-TNFR2 monoclonal antibodies were added.
(In general: A flow cytometer gives signals particle by particle.)

Assay [2] deals with T1, human TNFR2 on the cell membrane. In words: competition flow cytometry, TNFR2 positive cells, TNFα fusion protein at fixed concentration. As for the experimental part: Purified anti-human TNFR2 human-mouse monoclonal antibodies were co-cultured with TNFR2 positive cells and stained. The antibody binding intensity was analyzed by flow cytometry. The specific steps are as follows: cells were counted, centrifugated, resuspended, then added to a 96-deep well plate, and the supernatant was discarded. Gradient diluted anti-TNFR2 antibodies and TNFα fusion protein of fixed concentration were added. After incubation and wash, the secondary antibody PE-streptavidin (Biogen, 405203) was added for incubation, and the samples were detected using Beckman CytoFLEX.

Assay [3] has as its target T2, TNFR2-His (Sino Biological, 10417-H08H, NP_001057.1 Met1-Asp257, with multi-histidine tag expressed on … (human, UniProt P20333 23-257)).
T2 construct: range 1-257; Bought protein; also called recombinant human TNFR2 protein; TNFR2-His antigen; not shown: C-terminal multi-histidine tag
T2 sequence (looked up): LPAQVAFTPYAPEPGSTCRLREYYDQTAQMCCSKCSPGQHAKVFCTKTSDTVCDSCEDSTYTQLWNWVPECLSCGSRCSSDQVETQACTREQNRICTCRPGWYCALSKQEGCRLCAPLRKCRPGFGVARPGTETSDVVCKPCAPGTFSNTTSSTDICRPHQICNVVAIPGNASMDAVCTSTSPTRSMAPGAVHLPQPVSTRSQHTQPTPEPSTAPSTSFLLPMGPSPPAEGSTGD
The experiment in a line: competition ELISA, coated TNFR2-His, biotin-labeled TNFα fusion protein at fixed concentration. The procedure: (§1) The ELISA plate was coated with TNFR2-His antigen (Sino Biological, 10417-H08H, Assessment #NP_001057.1. Met1-Asp257, with multi-histidine tags expressed on C-terminus) and blocked, added with the gradient diluted TNFR2 monoclonal antibodies and biotin-labeled TNFα fusion protein of fixed concentration for incubation, then added with the secondary antibody Ap-Strepavidin (Herobio, 510401) for incubation. After development, the detection was performed using microplate reader.
Background: In an ELISA, binding on a coated surface is turned into a signal by an enzyme label.

Assay [4] addresses T2, TNFR2-His (Sino Biological, 10417-H08H, …). The experiment in a line: competition ELISA on coated TNFR2-His against biotin-labeled TNFα fusion protein at fixed concentration. As for the experimental part: as §1
In assay [5] the target is T1, human TNFR2 on the cell membrane. In words: flow cytometry, CHO-TNFR2 cells. The procedure, abridged: (§2)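 EC50 values come from flow cytometry of serially diluted antibodies binding CHO cells that stably overexpress human TNFR2. After incubation in 96-deep-well plates, the cells were washed, stained with a fluorescent anti-IgG secondary antibody and read on a Beckman CytoFLEX.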

Assay [6] has the same target. In words: flow cytometry on CHO-TNFR2 cells. In a few lines:
as §2

In assay [7] the target is T2, TNFR2-His (Sino Biological, 10417-H08H, …). In words: BLI, antibody captured on AHC probe, TNFR2 in solution. The procedure, abridged:
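Kon, koff and Kd values come from kinetic association measurements made by bio-layer interferometry (Octet, Basic Kinetics mode). Antibody-capture sensors carrying antibodies at 50 nM in Q buffer (10 mM PBS pH 7.4, 0.02% Tween 20, 0.2% BSA) were placed in recombinant human TNFR2, diluted 2-fold in the same buffer from a top concentration of 100 nM.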
(BLI is a label-free optical method that tracks binding on a fibre tip over time.)

Assay [8] has the same target. In words: ELISA, plate coated with TNFR2-His (first test). In a few lines: (§3)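 EC50 was obtained from a dilution series in an ELISA format. Blocked plates carried recombinant human TNFR2 with a C-terminal His tag, and serially diluted antibodies were incubated on them. An enzyme-labelled anti-IgG secondary antibody followed. Plates were then developed with TMB and read on a microplate reader.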

Assay [9] shares this target. In words: ELISA, plate coated with TNFR2-His (second test). In a few lines:
as §3

B1: human-mouse chimeric TNFR2 monoclonal antibody 27F6-hFc (antibody, V domains shown)
VH: EVQLQQSGTVLARPGASVKMSCKTSGYTFTSYWMHWVKQRPGQGLEWIGTIYPGNSDTSYNQKFKGKAKLTAVTSASTAYMELNSLTNEDSAVFYCTRENLLLRSYFFDYWGQGTTLTVSS
VL: DIVMTQSPASLAVSLGQRATISCKASQSVDYDGDSYLNWYQQKPGQPPKLLIYAASNLPSGIPARFSGSGSGTDFTLNIHPVEEEDAATYYCQQSNEDPRTFGGGTKLEIK
notes: Mouse V regions of clone 27F6 with human constant regions
For B1, the “percent of cells in the upper right quadrant (Q1-UR, CD3+ and anti-human IgG Fc+)” value in assay [1] was 42.3%. Also, the IC50 was 0.179 µg/mL in assay [2]; 0.644 µg/mL in [3]; 0.674 µg/mL and 4.52 nM in assay [4].

B2: human-mouse chimeric TNFR2 monoclonal antibody 12E12-hFc (antibody, V domains shown)
VH: EVQLQQSGAELVKPGASVKLSCTVSGFNIKDFYIHWVKQRPEQGLEWIGRVDPEDGNTEYAPNFQDRATMTTDTSSNTAYLQLSSLTSVDTAVYYCSTWDGFSYFDYWGLGTTLTVSS
VL: QAVVTQESALTTSPGETVTLTCRSSTGPVTTNNYANWVQEKPDHLFTGLIGGTNDRAPGVPARFSGSLIGDKTALTITGTQTEDEAVYFCALWYRNHWVFGGGTKLTVL
notes: Mouse V regions of clone 12E12 with human constant regions; also called human-mouse chimeric 12E12 antibody
On to B2, for which the EC50 in assay [5] was 0.195 nM; in assay [6] it was 0.0291 µg/mL; in assay [8], 0.0454 µg/mL and 0.304 nM; in [9], 0.0346 µg/mL and 0.232 nM. For the same molecule, the “percent of cells in the upper right quadrant (Q1-UR, CD3+ and anti-human IgG Fc+)” value in assay [1] amounted to 45.6%. In addition, the Kd in assay [7] amounted to 3.27 nM. In [7], the koff amounted to 0.00216 s⁻¹. The same molecule came in with a kon in [7] of 659000 M⁻¹ s⁻¹.
